This is an account of results in patent US10526416B2, “Anti-HER3 antibodies and uses of same” (Yeda Research and Development Co. Ltd., priority 2014, dated 2020).

The target in one test is HER3 (Homo sapiens, UniProt P21860). Kind of test: HER3 degradation in N87 cells (immunoblotting). To be noted: 3 h, 10 μg/ml mAb. The class given is cell-based. The procedure:
(FIGS. 5A and 5B) The mAb ability to degrade HER3 after cell treatment was determined as follows. N87 cells were treated for 3 h at 37° C. with 10 μg/ml mAb. After cell lysis and protein extraction, the samples were subjected to immunoblotting with the indicated Ab. (FIG. 5C) The experiment shown in FIG. 5A was performed on 6 other cancer cell lines. (FIG. 5D) The mAb capacity to induce ADCC is reported. BXPC3-luc cells were incubated with the indicated mAbs and secondarily with human PBMC cells for 24 h. Cell killing was detected by measuring the luminescence after final addition of luciferine. *** […], ANOVA and post hoc tests.
NG33 and NRG abilities to degrade HER3 after cell treatment were determined as follows. […]
FIGS. 12A-D show a combination of two mAbs directed to two different epitopes of HER3. […] After ah incubation, the plate was washed 4 times with KREBS buffer, and the fluorescence intensity at 610 nm was measured using a fluorescence microplate reader. […] (FIG. 12D) The combination's capacity to modulate NRG-induced phosphorylation of HER3, AKT and ERK was evaluated using N87 cells. […] The cells were then lysed, and equal quantities of lysate protein were electrophoresed before immunoblotting, as indicated. […]
The capacity of the mAbs to decrease abundance of HER3 was determined using western blotting. […]
Background: In western blotting, separated proteins are transferred to a membrane and probed.

The test system of the next test is BxPC3 xenografts. Kind of test: BxPC3 cell xenografts in CD1-Nude mice. It counts as in vivo. The note with it: 0.2 mg/injection IP every 3 days for 5 weeks, 7 to 8 mice per group. As to the method:
FIGS. 15A-F show the effects of a mixture of two anti HER3 mAbs, in vivo on BxPC3 cell xenografts and in vitro. (FIGS. 15A-C) CD1-Nude mice were grafted subcutaneously with 5×10^6 BxPC3 cells. Once tumors became palpable (after 13 days), the mice were randomized into group of 8 mice and treated every 3 days for 5 weeks. The control group (CTRL) was injected intra-peritoneally (IP) with 200 μl PBS. The other groups were treated with mAb alone or in combination at a final concentration of 0.2 mg/0.2 ml of PBS per mouse. The mice were weighted once a week and the tumors measured twice a week. An average tumor size of 7-8 mice (+/−SEM) is shown. (FIGS. 15D-F) Proliferation assays using MTT were performed on BxPC-3. 5,000 cells per well were plated the day before and treated for 72 h with the indicated mAb treatment. Decreasing concentrations of the indicated mAb (alone or in combination) were used in medium supplemented with 1% serum and NRG (10 ng/ml).
All animal studies were approved by the Weizmann Institute's Review Board (IRB). Tumor bearing CD1/nude mice were randomized in groups of five-ten mice and injected subcutaneously in the right flank with cancer cells (3-5×10^6 per mouse depending on the cell line). mAbs were injected intraperitoneally at a total dose of 200 μg per mouse per injection, twice a week, for 5 weeks or until tumors reached the size of 1,500 mm^3. In experiments evaluating the effect of the TKI AZD-9291, Vehicle (Vehicle formulation: HPMC 0.5% (sigma Cat#56340), Tween80 0.1% (Sigma Cat #P8074 in water), Erlotinib at a dose of 50 mg/kg per injection, or AZD9291 at a dose of 1 or 5 mg/kg per injection were injected daily intraperitoneally. In one experiment (FIG. 16), mice were treated daily with Erlotinib at a dose of 50 mg/kg per injection until tumors reached a size of 800 mm^3 and only then were treated as indicated. Tumor volume and body weight were evaluated twice and once per week, respectively. Mice were euthanized when tumor size reached 1,500 mm^3. […] Survival of the tumor bearing mice was recorded and depicted by Kaplan-Meier analysis. […]

HER3, sequence (P21860 20-1342): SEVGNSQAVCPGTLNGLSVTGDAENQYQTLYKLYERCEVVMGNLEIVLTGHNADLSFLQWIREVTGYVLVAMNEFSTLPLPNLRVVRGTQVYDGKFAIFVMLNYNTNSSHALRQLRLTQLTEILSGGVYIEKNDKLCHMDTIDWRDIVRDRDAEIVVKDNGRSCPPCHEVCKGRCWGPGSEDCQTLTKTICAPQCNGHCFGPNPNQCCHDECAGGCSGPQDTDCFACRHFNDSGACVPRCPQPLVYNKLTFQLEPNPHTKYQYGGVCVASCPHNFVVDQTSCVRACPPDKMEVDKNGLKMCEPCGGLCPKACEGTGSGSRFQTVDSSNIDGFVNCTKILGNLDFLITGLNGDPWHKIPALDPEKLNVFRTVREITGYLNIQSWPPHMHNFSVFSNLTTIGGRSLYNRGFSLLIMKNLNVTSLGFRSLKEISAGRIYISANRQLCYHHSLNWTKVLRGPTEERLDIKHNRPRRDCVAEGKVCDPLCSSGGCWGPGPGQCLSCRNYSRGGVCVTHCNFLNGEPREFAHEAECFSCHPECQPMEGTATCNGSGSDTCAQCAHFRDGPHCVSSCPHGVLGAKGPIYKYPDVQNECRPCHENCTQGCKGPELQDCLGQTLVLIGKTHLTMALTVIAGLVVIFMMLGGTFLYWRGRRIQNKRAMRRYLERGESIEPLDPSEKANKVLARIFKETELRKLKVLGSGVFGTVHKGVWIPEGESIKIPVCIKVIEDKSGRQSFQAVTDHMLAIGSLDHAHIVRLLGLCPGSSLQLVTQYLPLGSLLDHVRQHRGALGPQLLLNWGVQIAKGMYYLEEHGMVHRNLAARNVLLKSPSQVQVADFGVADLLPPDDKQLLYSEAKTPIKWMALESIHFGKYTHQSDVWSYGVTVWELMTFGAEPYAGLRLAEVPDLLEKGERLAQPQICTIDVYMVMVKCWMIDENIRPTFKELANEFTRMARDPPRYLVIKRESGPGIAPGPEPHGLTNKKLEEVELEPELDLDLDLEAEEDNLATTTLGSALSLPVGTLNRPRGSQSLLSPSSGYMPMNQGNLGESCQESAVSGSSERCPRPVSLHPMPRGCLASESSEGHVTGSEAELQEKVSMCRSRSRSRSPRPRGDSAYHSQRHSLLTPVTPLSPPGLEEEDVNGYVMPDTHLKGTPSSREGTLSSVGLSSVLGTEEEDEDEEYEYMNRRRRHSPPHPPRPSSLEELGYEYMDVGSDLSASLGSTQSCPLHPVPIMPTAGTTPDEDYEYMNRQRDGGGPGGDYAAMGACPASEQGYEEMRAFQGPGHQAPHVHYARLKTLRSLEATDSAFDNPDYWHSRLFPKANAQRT

B1: XC252: anti-HER3 mAb generated as described in Chen X, et al. (1996); heavy and light chain SEQ ID NOs: 49 and 53 (antibody, V domains shown)
VH: EVQLQQSGAELVRPGVSVKISCKGSGYTFTDYAMHWVKQSHAKSLEWIGVISTYYGDPRDNQKFKGKATMTVDKSSSTAYMELARLTSEDSAIYYCARGDYDWYAIDYWGQGTSVTVSS
VL: DVVMTQTPLSLPVSLGDQASISCRSSQSIVHSDGNTYLEWYLQKPGQSPKLLIYKVSNRFSGVPDRFSGSGSGTDFTLKISRVEAEDLGVYYCFQGSHVPPTFGGGTKLEIK
modifications: VH chain of XC252 polypeptide; VL chain of XC252 polypeptide
Regarding B1, the HER3 degradation result in the test with HER3 is listed as “caused HER3 degradation, but their impact was weaker”. Also, the “effect on BxPC3 xenograft tumor growth” value with BxPC3 xenografts is reported as “no statistically significant ability to decrease tumor growth”.

B2: NG83: anti-HER3 mAb; light chain CDRs SEQ ID NOs: 7-9, heavy chain CDRs 10-12 (antibody, V domains shown)
VH: QIQLVQSGPELKKRGETVKISCKASGYTFTNYGMNWVRQAPGKGLKCMGWINTYAGEPTYADDFKGRFAFSLDSSASTAYLQINNLKNEDMATYFCARGGITGAMDYWGQGTSVTVSS
VL: DVVMTQKTSSLSTSLGDRVTISCRASQDIRNYLNWYQQKPDGTVKLLIYYTSRLHSGVPSRFSGSGSGTDYSLTISDLEQEDIATYFCQQGNTLPWTFGGGTKLAIK
modifications: VH chain of NG83 polypeptide; VL chain of NG83 polypeptide
Consider B2, for which the “effect on BxPC3 xenograft tumor growth” value with BxPC3 xenografts is “no statistically significant ability to decrease tumor growth”.
